Assay results taken from the supplement of paper PMC9112550, “Optimization of the antimicrobial peptide Bac7 by deep mutational scanning” (BMC Biology, 2022).

System: Escherichia coli TOP10
Assay: shrunken log2 fold change of peptide-encoding DNA abundance (4.5 h post-induction vs induction); higher = less antimicrobial activity (less host growth inhibition)
Conditions: time post-induction: 4.5 h; library: site-saturation at positions 5, 18, 19, 20
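Note: peptides expressed intracellularly from a pBAD plasmid library in pooled LB shake-flask culture, induced with 0.3% L-arabinose, DNA abundance read by NGS, three biological replicates, DESeq2 with apeglm shrinkage.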

| Sequence | shrunken log2 fold change |
| --- | --- |
| RRIRVRPPRLPRPRPRPHIIPRP | -0.204 |
| RRIRVRPPRLPRPRPRPHIMPRP | -0.339 |
| RRIRVRPPRLPRPRPRPHIWPRP | -0.244 |
| RRIRVRPPRLPRPRPRPHKAPRP | -0.0103 |
| RRIRVRPPRLPRPRPRPHKWPRP | -0.0581 |
| RRIRVRPPRLPRPRPRPHMMPRP | -0.659 |
| RRIRVRPPRLPRPRPRPHMRPRP | -0.0474 |
| RRIRVRPPRLPRPRPRPHNIPRP | -0.392 |
| RRIRVRPPRLPRPRPRPHNTPRP | -0.353 |
| RRIRVRPPRLPRPRPRPHRLPRP | -0.0912 |
| RRIRVRPPRLPRPRPRPHRNPRP | -0.531 |
| RRIRVRPPRLPRPRPRPHSFPRP | -0.155 |
| RRIRVRPPRLPRPRPRPHSLPRP | -0.232 |
| RRIRVRPPRLPRPRPRPHSVPRP | -0.177 |
| RRIRVRPPRLPRPRPRPHTCPRP | -0.345 |
| RRIRVRPPRLPRPRPRPHTQPRP | 0.00176 |
| RRIRVRPPRLPRPRPRPHVMPRP | -0.526 |
| RRIRVRPPRLPRPRPRPHVNPRP | -0.554 |
| RRIRVRPPRLPRPRPRPHVPPRP | -0.044 |
| RRIRVRPPRLPRPRPRPHWEPRP | -0.0118 |
| RRIRVRPPRLPRPRPRPHWSPRP | -0.191 |
| RRIRVRPPRLPRPRPRPHYRPRP | -0.0502 |
| RRIRVRPPRLPRPRPRPIASPRP | 0.171 |
| RRIRVRPPRLPRPRPRPICEPRP | 0.058 |
| RRIRVRPPRLPRPRPRPICPPRP | -0.0804 |

| Sequence | shrunken log2 fold change |
| --- | --- |
| RRIRVRPPRLPRPRPRPIDRPRP | -0.0529 |
| RRIRVRPPRLPRPRPRPIFSPRP | -0.628 |
| RRIRVRPPRLPRPRPRPIGAPRP | 0.255 |
| RRIRVRPPRLPRPRPRPIGNPRP | -0.194 |
| RRIRVRPPRLPRPRPRPIGPPRP | -0.0936 |
| RRIRVRPPRLPRPRPRPIHEPRP | 0.0255 |
| RRIRVRPPRLPRPRPRPIKKPRP | -0.015 |
| RRIRVRPPRLPRPRPRPIKQPRP | 0.0119 |
| RRIRVRPPRLPRPRPRPIMKPRP | -0.473 |
| RRIRVRPPRLPRPRPRPIMYPRP | -0.514 |
| RRIRVRPPRLPRPRPRPINQPRP | -0.749 |
| RRIRVRPPRLPRPRPRPIPEPRP | -0.0974 |
| RRIRVRPPRLPRPRPRPIQAPRP | -0.0344 |
| RRIRVRPPRLPRPRPRPISEPRP | -0.282 |
| RRIRVRPPRLPRPRPRPITDPRP | -0.069 |
| RRIRVRPPRLPRPRPRPIWTPRP | -0.0382 |
| RRIRVRPPRLPRPRPRPIYLPRP | -0.543 |
| RRIRVRPPRLPRPRPRPKAKPRP | 0.0989 |
| RRIRVRPPRLPRPRPRPKAPPRP | 0.592 |
| RRIRVRPPRLPRPRPRPKDAPRP | 0.0211 |
| RRIRVRPPRLPRPRPRPKEGPRP | 0.0282 |
| RRIRVRPPRLPRPRPRPKEPPRP | 0.0639 |
| RRIRVRPPRLPRPRPRPKFHPRP | 0.678 |
| RRIRVRPPRLPRPRPRPKFMPRP | -0.0954 |
| RRIRVRPPRLPRPRPRPKFSPRP | 0.0178 |

| Sequence | shrunken log2 fold change |
| --- | --- |
| RRIRVRPPRLPRPRPRPKFYPRP | -0.46 |
| RRIRVRPPRLPRPRPRPKGHPRP | -0.0413 |
| RRIRVRPPRLPRPRPRPKGSPRP | 0.0616 |
| RRIRVRPPRLPRPRPRPKHHPRP | -0.357 |
| RRIRVRPPRLPRPRPRPKHLPRP | 0.0232 |
| RRIRVRPPRLPRPRPRPKHPPRP | 0.28 |
| RRIRVRPPRLPRPRPRPKHSPRP | -0.189 |
| RRIRVRPPRLPRPRPRPKIDPRP | 0.124 |
| RRIRVRPPRLPRPRPRPKINPRP | -0.18 |
| RRIRVRPPRLPRPRPRPKKEPRP | 0.18 |
| RRIRVRPPRLPRPRPRPKKIPRP | 0.0852 |
| RRIRVRPPRLPRPRPRPKNTPRP | -0.347 |
| RRIRVRPPRLPRPRPRPKPIPRP | -0.0649 |
| RRIRVRPPRLPRPRPRPKQDPRP | -0.266 |
| RRIRVRPPRLPRPRPRPKQRPRP | 0.157 |
| RRIRVRPPRLPRPRPRPKRKPRP | 0.376 |
| RRIRVRPPRLPRPRPRPKTHPRP | -0.0994 |
| RRIRVRPPRLPRPRPRPKTTPRP | -0.0198 |
| RRIRVRPPRLPRPRPRPKWSPRP | 0.0979 |
| RRIRVRPPRLPRPRPRPKYRPRP | -0.0331 |
| RRIRVRPPRLPRPRPRPLGQPRP | 0.131 |
| RRIRVRPPRLPRPRPRPLGTPRP | 0.188 |
| RRIRVRPPRLPRPRPRPLHAPRP | 0.473 |
| RRIRVRPPRLPRPRPRPLHCPRP | 0.238 |
| RRIRVRPPRLPRPRPRPLHRPRP | -0.0175 |
